Assay [1] addresses T1, human IL-23R (human, UniProt Q5VWK5 24-353, limits assumed).
T1 construct: also called huIL-23R; human interleukin-23R
T1 sequence: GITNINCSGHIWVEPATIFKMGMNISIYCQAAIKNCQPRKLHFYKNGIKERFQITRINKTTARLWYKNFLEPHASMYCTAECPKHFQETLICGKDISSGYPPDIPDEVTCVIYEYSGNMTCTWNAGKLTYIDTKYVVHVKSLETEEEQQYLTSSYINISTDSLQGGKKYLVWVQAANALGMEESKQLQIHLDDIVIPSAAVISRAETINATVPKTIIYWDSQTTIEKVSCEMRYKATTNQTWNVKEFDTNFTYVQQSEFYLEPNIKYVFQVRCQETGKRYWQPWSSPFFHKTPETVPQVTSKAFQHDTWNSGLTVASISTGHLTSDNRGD
Put plainly: BIAcore SPR, antibody immobilised. The method, then:
(§1) BIAcore® label-free interaction analysis system determinations are performed essentially as described at Example 4 of U.S. Patent Application Publication No. 2007/0048315, which is hereby incorporated by reference. Briefly, ligands (anti-IL-23R mAbs) are immobilized on a BIAcore® label-free interaction analysis system CM5 sensor chip using standard amine-coupling procedure. Kinetic constants for the various interactions are determined using BIAevaluation software 3.1. The Kd is determined using the calculated dissociation and association rate constants.
For orientation: SPR reads the build-up and loss of mass on a sensor chip optically.

The target in assay [2] is T1, human IL-23R. Put plainly: KinExA. Here is the method:
(§2) The equilibrium dissociation constants (Kd) for anti human IL-23R antibodies are determined using the KinExA. 3000 instrument. Sapidyne Instruments Inc., Boise Id., USA. KinExA uses the principle of the Kinetic Exclusion Assay method based on measuring the concentration of uncomplexed antibody in a mixture of antibody, antigen and antibody-antigen complex. The concentration of free antibody is measured by exposing the mixture to a solid-phase immobilized antigen for a very brief period of time. In practice, this is accomplished by flowing the solution phase antigen-antibody mixture past antigen-coated particles trapped in a flow cell. Data generated by the instrument are analyzed using custom software. Equilibrium constants are calculated using a mathematical theory based on the lowing assumptions: [0177] 1. The binding follows the reversible binding equation for equilibrium: […]
PMMA particles (Sapidyne, Cat No. 440198) are coated with biotinylated IL-23R (or a fragment thereof, such as the extracellular domain) according to Sapidyne “Protocol for coating PMMA particles with biotinylated ligands having short or nonexistent linker arms.” EZ-link TFP PEO-biotin (Pierce, Cat. No. 21219) is used to make biotinylated IL-23R, as per the manufacturer's recommendations (Pierce bulletin 0874).

Assay [3] concerns the target T1, human IL-23R. Kind of assay: BIAcore SPR, antibody immobilised. The method, then:
as §1
Several sequence variants intended to increase the chemical stability of hu8B10-b were produced to evaluate their effects on binding affinity. Kd values are provided at Table 3. Binding to human IL-23R was determined using the BIAcore® label-free interaction analysis system (surface plasmon resonance), essentially as described in Example 4 (supra). Chimeric forms, designated as “chim,” refers to rat variable domains linked to human IgG1 heavy chain and human kappa light chain constant domains, e.g., as presented at SEQ ID NOs: 16 and 17, respectively, or as at SEQ ID NOs: 22 and 23, respectively. Sequences for heavy and light chain variable domains are provided at FIGS. 1 and 2, and in the Sequence Listing (as described at Table 4). Antibodies incorporate the sequence changes recited in the table (“Variant(s)”) for the respective heavy and light chains. Data arc presented as mean±standard deviation for multiple determinations, and without error estimates for single determinations.
The source holds these as a separate data set.

Assay [4] addresses T1, human IL-23R. Put plainly: KinExA, full-length chimeric antibody; original sequence (no N31T). The method, then: as §2
(§3) PMMA particles (Sapidyne, Cat No. 440198) are coated with biotinylated IL-23R (or a fragment thereof, such as the extracellular domain) according to Sapidyne “Protocol for coating PMMA particles with biotinylated ligands having short or nonexistent linker arms.” EZ-link TFP PEO-biotin (Pierce, Cat. No. 21219) is used to make biotinylated IL-23R, as per the manufacturer's recommendations (Pierce bulletin 0874). […]
Background: A kinetic exclusion assay measures how much of one partner remains free in solution.

The target of assay [5] is T1, human IL-23R. Kind of assay: KinExA, full-length chimeric antibody. The method, then: as §2, §3
Assay [6] addresses T1, human IL-23R. Kind of assay: KinExA, full-length chimeric antibody; N31T variant, full-length chimeric. The method, then: as §2, §3

Substitutions are numbered along the chain they refer to. Names may count otherwise.

Experimental findings from patent US20110158992A1 (SCHERING, published 2011) are described below.

The term Kd denotes a measure of binding affinity in units of concentration. Read a low Kd as higher affinity.

B1: rat anti-human IL-23R antibody 8B10 (antibody, rat IgG2a, V domains shown)
VH: EVKLVESGGGLEQPKGSLKLSCTVSGFDFNSYGMSWVRQAPGKGLDLVADINSKSYNYATYYADSVKDRFTISRDDSQSMVYLEMDNLKTEDTALYYCTVHHSDYFEYWGQGVMVTVSS
VL: DIQMTQSPASLSASLGETVSIECLASEDIYNNLAWYQQKPGKSPQLLIYHASSLQDGVPSRFSGSGSGTQYSLKINSLESEDAATYFCLQDSEYPPTFGGGTKLELKR
notes: also called r8B10
For B1, the dissociation constant Kd with human IL-23R [1] is approximately 0.3 nM; in the assay with human IL-23R [2], 0.042 nM; in the assay with human IL-23R [3], 0.27 nM.

B2: chimeric 8B10 full-length antibody (antibody, V domains shown)
VH: B1 VH
VL: B1 VL
notes: also called chim8B10
For B2, the Kd amounted to 0.025 nM in the assay with human IL-23R [4] and 0.345 nM in the assay with human IL-23R [3].

B3: full-length chimeric 8B10 antibody, VL N31T (antibody, V domains shown)
VH: B1 VH
VL: B1 VL with N31T
notes: also called N31T variant
On to B3, for which the “fold improvement in binding affinity against the original sequence” value in the assay with human IL-23R [5] amounted to 3 fold. In addition, the Kd with human IL-23R [6] stood at 0.008 nM.
